Measurements: patent US20150111954, “LIN28/LET-7 CRYSTAL STRUCTURES, PURIFICATION PROTOCOLS, AND MOLECULAR PROBES SUITABLE FOR SCREENING ASSAYS AND THERAPEUTICS” (PRESIDENT AND FELLOWS OF HARVARD UNIVERSITY, published 2015)

Assays:
[1] = molecular target: T1, Lin28a delta-delta (terminal truncations and 9-residue linker deletion) (Mus musculus, UniProt Q8K3Y3 SEQ:4-151); assay: structure; crystal structure 2.0 A, Zn; conditions: tags: His6 removed by TEV; domain-swapped dimer in crystal); stem-loop with 3' single-stranded GGAG
T1 chain: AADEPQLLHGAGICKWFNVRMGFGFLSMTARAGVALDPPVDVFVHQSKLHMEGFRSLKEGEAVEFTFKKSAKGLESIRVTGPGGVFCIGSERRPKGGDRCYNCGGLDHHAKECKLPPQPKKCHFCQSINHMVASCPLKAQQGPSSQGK
Method: (§1) Crystals of all three complexes were produced by vapor diffusion, using the hanging drop method. Concentrated complexes (10 mg/mL) were mixed 1 μL:1 μL with reservoir solution, and crystals grew overnight. Reservoir solution contained 0.6M NaH₂PO₄, 1.4M K₂HPO₄ and 5% glycerol for preEM-let-7d and preEM-let-7f-1 complexes; for preEM-let-7g, it contained 0.1M Tris pH 8.0, 32% w/v PEG 4000, and 0.2M Sodium Acetate. Crystals were harvested with mother liquor supplemented with 20% glycerol and frozen in liquid nitrogen. Diffraction data was indexed and scaled using XDS (Kabsch, 2010) and SCALA (Evans, 2006) in a workflow provided by autoPROC (Vonrhein et al., 2011). Experimental phases were obtained for Lin28:pre-let-7d complex by anomalous scattering from zinc atoms (SAD), using HKL2MAP (Schneider and Sheldrick, 2002) and AutoSol (Terwilliger et al., 2009). The structures of Lin28: preEM-let-7f-1 and Lin28: preEM-let-7g were solved by molecular replacement with Lin28: preEM-let-7d as search model using Phaser (McCoy et al., 2007). Density modification and NCS averaging over 6 or 2 copies were performed with PHENIX (Adams et al., 2010) to obtain electron density maps for model building with COOT (Emsley and Cowtan, 2004) and PHENIX was used for further refinement. […]

[2] = molecular target: T1, Lin28a delta-delta (terminal …); assay: EMSA; 9-residue linker deletion supports binding; slightly lower affinity than full-length suggested; conditions: tags: His6 removed by TEV; domain-swapped dimer in crystal); label: 5'-32P; stem-loop with 3' single-stranded GGAG
Description: FIG. 2. Linker between CSD and CCHCx2 is flexible. See also FIG. 9. (A) Longitudinal (R1) and transverse (R2) relaxation rates and the ratio (R2/R1), plotted against the residue number. Relatively more dynamic regions are marked with a light yellow box. (B) Alignment of internal deletions in the linker, indicated with the number of amino acids deleted on left (SEQ ID NOS 84-87, respectively, in order of appearance). (C) EMSAs with preE-let-7d as probe, mixed with increasing concentrations (0.005, 0.02, 0.08, 0.3, 1.2, 5, 20 μM) of linker deletion constructs of Lin28(16-184): *, free probe; **, complex. (D) Quantitative RT-PCR results for in vivo levels of mature let-7g. Lin28Δ is truncated at both N and C termini. Lin28ΔΔ has both of the terminal extensions and the linker removed. The standard deviation is calculated from triplicate experiments; U6 RNA levels were used for normalization. (E) and (F) Western blots of Trizol bottom layer for transfections shown in (D).

Lin28a full-length = molecular target: T2, Lin28a full-length (Mus musculus, UniProt Q8K3Y3 Q8K3Y3:1-209); assay: EMSA; conditions: tags: His6 removed by TEV; label: 5'-32P; stem-loop with 3' single-stranded GGAG
T2 sequence: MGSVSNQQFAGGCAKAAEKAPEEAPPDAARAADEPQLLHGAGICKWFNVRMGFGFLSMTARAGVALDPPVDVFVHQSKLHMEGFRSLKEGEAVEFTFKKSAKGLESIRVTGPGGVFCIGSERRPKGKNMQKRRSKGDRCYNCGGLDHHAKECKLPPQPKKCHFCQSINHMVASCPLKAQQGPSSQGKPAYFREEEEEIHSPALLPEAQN
Method: (§2) FIG. 9. Domain mapping and structural analysis of Lin28 protein, Related to FIG. 2. (A) EMSA of Lin28 truncations. […] Full-length preE-let-7d was used as probe, titrated with protein constructs indicated (left to right: 8 nM, 33 nM, 130 nM, 520 nM, 2.1 μM, 8.3 μM, 33.3 μM). (B) ¹⁵N-NOESY of the linker region. Homonuclear 1H/1H NOE spectral strips belonging to the residue numbers marked in red were taken from a 3D 15N-selected NOESY-HSQC, and only the amide region is shown for inter-residue backbone NOEs. Diagonal peaks are marked with a diagonal line and crosspeaks are marked with a cross. The linker region is missing inter-residue NOEs, while CCHC has amide-amide interactions evident from crosspeaks. (C) Plot of secondary shifts for Ca, CP, and C′ vs. residue number. Domain boundaries, consistent as in FIG. 2A, are marked with dashed grey lines. (D) EMSA of protein linker deletion constructs. Increasing amounts of protein (Lin28 35-187, with or without 9-residue internal deletion in the linker region) were added to radioactively labeled fragment of pre-let-7f-1 indicated. The concentrations of protein in each lane are as follows: 5 nM, 20 nM, 78 nM, 313 nM, 1.2 μM, 5 μM, 20 μM. (E) In vivo processing assay of pri-miR-122 and pri-miR-16, similar to main FIG. 2D. 293T cells (12 well) were co-transfected with Lin28 (100 ng) with pri-miR-122 or pri-miR-15-16 (750 ng). […]

[3] = molecular target: T3, Lin28a (16-184), CSD-linker-CCHCx2 (Mus musculus, UniProt Q8K3Y3 SEQ:4-172); assay: EMSA; comparable affinity to full-length; Kd bins only in figure; 20 mM Tris 7.5, 100 mM NaCl, 50 uM ZnCl2, yeast tRNA; conditions: tags: His6 removed by TEV (GSG remnant); label: 5'-32P; stem-loop with 3' single-stranded GGAG
T3 chain: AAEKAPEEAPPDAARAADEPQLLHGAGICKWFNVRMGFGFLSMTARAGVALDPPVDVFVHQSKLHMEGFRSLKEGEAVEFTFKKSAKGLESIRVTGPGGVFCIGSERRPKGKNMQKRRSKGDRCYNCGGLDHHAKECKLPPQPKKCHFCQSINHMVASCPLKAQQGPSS
Method: as §2

[4] = molecular target: T1, Lin28a delta-delta (terminal …); assay: structure; crystal structure 2.8 A, Zn; conditions: tags: His6 removed by TEV; domain-swapped dimer in crystal); stem-loop with 3' single-stranded GGAG
Method: as §1

[5] = molecular target: T3, Lin28a (16-184), CSD-linker-CCHCx2; assay: EMSA; minimal preE, sufficient for high-affinity binding; complex also studied by NMR; conditions: tags: His6 removed by TEV (GSG remnant); stem-loop with 3' single-stranded GGAG
Lin28a = molecular target: T4, Lin28a (Homo sapiens, UniProt Q9H9Z2 Q9H9Z2:2-209); assay: EMSA; effects of preEM point mutations equivalent to mouse Lin28a; conditions: stem-loop with 3' single-stranded GGAG
T4 sequence: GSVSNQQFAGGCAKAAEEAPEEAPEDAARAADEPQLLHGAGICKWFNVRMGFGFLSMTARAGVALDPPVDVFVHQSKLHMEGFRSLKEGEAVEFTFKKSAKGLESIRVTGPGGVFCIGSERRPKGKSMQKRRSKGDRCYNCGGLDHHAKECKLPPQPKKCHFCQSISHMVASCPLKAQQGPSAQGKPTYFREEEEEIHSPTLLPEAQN

Lin28b = molecular target: T5, Lin28b (Homo sapiens, UniProt Q6ZN17 Q6ZN17:1-250); assay: as above; conditions: stem-loop with 3' single-stranded GGAG
T5 sequence: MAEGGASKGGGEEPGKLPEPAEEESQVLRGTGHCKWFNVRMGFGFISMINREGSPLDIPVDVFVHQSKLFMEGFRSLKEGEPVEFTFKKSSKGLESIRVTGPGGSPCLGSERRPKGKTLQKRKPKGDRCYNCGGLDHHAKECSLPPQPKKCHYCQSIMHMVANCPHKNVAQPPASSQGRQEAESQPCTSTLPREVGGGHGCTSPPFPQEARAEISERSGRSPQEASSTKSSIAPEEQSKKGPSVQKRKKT

[6] = molecular target: T1, Lin28a delta-delta (terminal …); assay: structure; crystal structure 2.9 A, Zn; conditions: tags: His6 removed by TEV; domain-swapped dimer in crystal); stem-loop with 3' single-stranded GGAG
Method: as §1

[7] = molecular target: T1, Lin28a delta-delta (terminal …); assay: EMSA; probe is a pre-let-7f-1 fragment; conditions: tags: His6 removed by TEV; domain-swapped dimer in crystal); label: 5'-32P

GGGGUCUAUGAUACCACCCCGGAG (ssRNA) [preEM-let-7g]
binding result [1]: binds

UUAGGGCAGAGAUUUUGCCCACAAGGAGUU (ssRNA) [preE-let-7d]
binding result [2]: binds | binding result (Lin28a full-length): binds | binding result [3]: binds

GGGGUAGUGAUUUUACCCUGGAG (ssRNA) [preEM-let-7f-1]
binding result [4]: binds

GGGCAGAGAUUUUGCCCGGAG (ssRNA) [preEM-let-7d]
binding result [5]: binds | binding result (Lin28a): binds | binding result (Lin28b): binds | binding result [6]: binds

GUGGGGUAGUGAUUUUACCCUGUUUAGGAGAU (ssRNA) [preE-let-7f-1]
binding result [7]: binds
